How the values were obtained:
Bax channel = assay: Effect of Bax 11-mer peptide on Bax channel in planar lipid bilayer; format: biochemical, murine; settings: 20 to 100 μM
[1] = Channel forming activity of peptide in planar lipid bilayers which lack BCL-2 related proteins; format: biochemical; settings: bilayers lacking BCL-2 related proteins
cell death = settings: known activity; cited from earlier work
Bcl-2 channel = molecular target: T1, Bcl-2 channel (Mus musculus, UniProt P10417); assay: Effect of Bax death agonist peptide on Bcl-2 channel in planar lipid bilayer; format: biochemical, murine; settings: for effect on conductance pattern of Bcl-2 channel: 20 to 100 μM; for effect on ion selectivity of Bcl-2 channel: peptide added to Bcl-2 channel
T1 construct: proteoliposomes fused to planar lipid bilayer
From the text: The Bax and Bcl-2 polypeptides used in the ion channel studies reported herein were recombinant murine Bcl-2 and Bax polypeptides lacking the C-terminal signal-anchor membrane targeting sequence (Bcl-2ΔC21, amino acids 1-218 of SEQ ID NO:9 and BaxΔC19, amino acids 1-173 of SEQ ID NO:6). These deletion derivatives, also referred to herein as BaxΔTM and Bcl-2ΔTM, were used to avoid any interference of the C-terminal signal-anchor membrane targeting sequence with the capacity of internal α helices to mediate insertion into artificial lipid bilayers.
Proteoliposomes for fusion with a planar lipid bilayer were prepared as follows. Purified protein (0.25 μg) was added to […] lipid (Azolectin) in 20 μl of KCl buffer (150 mM KCl, 10 mM HEPES, pH 7.0). This mixture was placed into a dialysis bag with a molecular weight cutoff of 12 KDa. After 16 hours dialysis in 3000 volumes of 150 mM KCl (10 mM HEPES, pH 7.0) the proteoliposome suspension was removed and placed on ice for immediate use. The bilayer was set up with a 450:150 cis to trans KCl gradient to identify the ion selectivity of the initial currents. Fusion was initiated by adding 5-20 μl of lipid vesicles (only 5-20 ng of protein) to the cis bilayer chamber with mixing. Non-fused proteoliposomes were removed from the compartments and solutions exchanged as described above.
Control bilayers containing Bcl-2 or Bax channels were prepared by fusion of unilamellar proteoliposomes with incorporated Bcl-2ΔTM or BaxΔTM with an established planar bilayer as described in Example 4. Test bilayers containing Bcl-2 channels were prepared in the same manner to which an 11 mer Bax peptide (SEQ ID NO:1) with known death agonist activity was added at 20, 50 or 100 μM. A voltage of 80 mV was applied to each control and test channel and its conductance measured for a period of 12 to 16 seconds and the frequency that each channel was measured at a particular conductance level (pA) was calculated. The data, representing about 500,000 measurements, are shown as histograms in FIGS. 8A-8E.
Bilayers containing Bcl-2 and Bax channels were prepared as described in Example 4 with 150 mM KCl on both sides of the bilayer. The death agonist peptide was added to the cis side of a Bcl-2 channel at 150 μM. The voltage dependence of the currents and the ion selectivity for the Bcl-2 channel in the absence and presence of the death agonist peptide, as well as the Bax channel were determined and the data are shown in FIGS. 9A-C.

T1 sequence (P10417 1-218): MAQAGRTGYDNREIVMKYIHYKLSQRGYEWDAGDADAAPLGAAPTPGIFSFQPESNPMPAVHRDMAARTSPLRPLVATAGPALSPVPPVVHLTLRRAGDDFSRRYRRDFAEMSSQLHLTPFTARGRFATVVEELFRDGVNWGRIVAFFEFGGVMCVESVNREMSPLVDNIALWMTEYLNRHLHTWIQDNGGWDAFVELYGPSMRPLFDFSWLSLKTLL

## ECLKRIGDELD [Bax 11mer peptide]
Bax channel
  effect on activity of Bax channels: not affected
[1]
  channel forming activity: no channel forming activity
Cell death
  cell death induction (known): known to induce cell death
Bcl-2 channel; 100 μM peptide, 80 mV
  single remaining conductance peak of Bcl-2 channel: about 65 pA
Bcl-2 channel; 150 μM peptide, cis side
  pK/pCl of Bcl-2 channel with peptide: 0.26±0.05
Bcl-2 channel; 150 μM peptide, symmetrical 150 mM KCl
  slope of Bcl-2 channel current at negative potentials: linear and intermediate between that of Bcl-2 and Bax alone
Bcl-2 channel; 150 μM peptide, symmetrical 150 mM KCl, listed as death agonist peptide
  effect on rectification of Bcl-2 channel: imparted rectification
Bcl-2 channel
  effect on conductance pattern of Bcl-2 channel: a simpler single channel conductance pattern
  effect on ion selectivity of Bcl-2 channel: Cl^- selectivity
Bcl-2 channel; listed as 11 mer Bax peptide
  effect on conductance pattern of Bcl-2 channel: changes its characteristic conductance pattern in a progressive manner
Bcl-2 channel; listed as death agonist peptide
  effect on ion selectivity of Bcl-2 channel: reversed the ion selectivity of the Bcl-2 channel
